According to patent US20240067729A1 (PALLEON PHARMACEUTICALS, published 2024):

Columns and labels:
[1] = target: T1, human PD-L1 expressed on cells (HCC827, NCI-H292, CHO-PD-L1, engineered CHO-K1) (human, UniProt Q9NZQ7 19-290); assay: cell-based or functional assay
[2] = target: T2, human PD-L1, his tagged (hPD-L1-his) (human, UniProt Q9NZQ7 19-238, limits assumed); assay: BLI (ForteBio Octet), human PD-L1
T2 construct: also called huPD-L1-His; recombinant human PD-L1; not shown: his tag

[3] = target: T3, cynomolgus PD-L1, his tagged (cPD-L1-his) (cynomolgus (Macaca fascicularis), UniProt G7PSE7 19-238); assay: BLI (ForteBio Octet), cynomolgus PD-L1
T3 construct: also called cyPD-L1-His; Cyno PD-L1
T3 sequence (G7PSE7 entry or part of it limits assumed, form in doubt): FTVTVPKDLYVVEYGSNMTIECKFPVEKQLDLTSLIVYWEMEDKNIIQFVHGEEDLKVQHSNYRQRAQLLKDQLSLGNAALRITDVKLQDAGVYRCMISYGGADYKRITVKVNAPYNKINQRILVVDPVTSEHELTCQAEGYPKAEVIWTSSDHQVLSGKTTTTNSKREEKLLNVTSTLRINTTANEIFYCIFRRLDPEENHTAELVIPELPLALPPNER

[4] = target: human PD-L1 (hPD-L1) coated on ELISA wells, Example 7 (human, UniProt Q9NZQ7 19-238, limits assumed); assay: blocking ELISA: titrated + biotinylated hPD-1-Fc 1 ug/mL on coated hPD-L1
Chain of human PD-L1 (hPD-L1) coated on ELISA wells, Example 7 (Q9NZQ7 19-238 limits assumed): as the sequence (G7PSE7 entry or part of it limits assumed, form in doubt) above, with T33A, S34A, N62S, Q68R, R82Q, L173F, A185T, I192T, L215H counted along it
Description: The plate was developed with TMB and Stop buffer and the absorbance at 450 nm was read using a SpectraMax plate reader.

[5] = target: T1, human PD-L1 expressed on cells (HCC827, …); assay: flow cytometry on HCC827 cells, apparent Kd; calculated using data points up to 3.7 nM
Method: (§1) The ability of PD-L1 antibody sialidase conjugates to bind PD-L1 on HCC827 and NCI-H292 cells was examined next. […] After washing with staining buffer, cells were incubated with AF647 Goat anti-human IgG(H+L) in staining buffer at 4° C. for 30 min. After 2× wash with staining buffer, cells were fixed and run on FACSCelesta.

[6] = target: T1, human PD-L1 expressed on cells (HCC827, …); assay: flow cytometry on NCI-H292 cells, apparent Kd; calculated using data points up to 3.7 nM
Method: as §1

T1 sequence (Q9NZQ7 19-290, change not shown): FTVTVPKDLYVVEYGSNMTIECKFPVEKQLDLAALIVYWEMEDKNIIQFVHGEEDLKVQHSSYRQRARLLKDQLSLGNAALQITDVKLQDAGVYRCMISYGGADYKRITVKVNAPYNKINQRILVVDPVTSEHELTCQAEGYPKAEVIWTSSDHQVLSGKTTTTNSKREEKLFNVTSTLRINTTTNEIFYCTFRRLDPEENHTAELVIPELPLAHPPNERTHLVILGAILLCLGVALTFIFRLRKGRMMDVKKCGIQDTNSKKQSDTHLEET
T2 sequence (Q9NZQ7 19-238 limits assumed): as the sequence (G7PSE7 entry or part of it limits assumed, form in doubt) above, with T33A, S34A, N62S, Q68R, R82Q, L173F, A185T, I192T, L215H counted along it

- EC50 (NFAT-luciferase fold induction) [1]: 0.56 nM
- Kd [2]: 2.13 nM
- koff [2]: 0.000728 s⁻¹
- kon [2]: 346000 M⁻¹ s⁻¹
- Kd [3]: 1.53 nM
- koff [3]: 0.000443 s⁻¹
- kon [3]: 297000 M⁻¹ s⁻¹
- IC50 [4]: 1.44 nM
- Kd [5]: 0.125 nM
- Kd [6]: 0.0973 nM
B1: h769.T-1A (antibody, V domains shown)
VH: EVQLVQSGAEVKKPGATVKISCKVSGFNIKDTYMHWVQQAPGKGLEWMGLIDPANDNTIYAEKFQGRVTITADTSTDTAYMELSSLRSEDTAVYYCAREGYGGSYGEGYWGQGTLVTVSS
VL: EIVMTQSPPTLSLSPGERVTLSCRASQSVSNDLSWYQQKPGQAPRLLIYYASIRFTGIPARFSGSGSGTDFTLTISSLQPEDFAVYYCQQDYTSPWTFGQGTKVEIK
notes: bivalent
